Reference: patent US20220267464A1 (Hoffmann-La Roche, published 2022)

T1: human CEA (CEACAM5), form in the assay not stated (human, UniProt P06731 35-685, limits assumed)
T1 sequence: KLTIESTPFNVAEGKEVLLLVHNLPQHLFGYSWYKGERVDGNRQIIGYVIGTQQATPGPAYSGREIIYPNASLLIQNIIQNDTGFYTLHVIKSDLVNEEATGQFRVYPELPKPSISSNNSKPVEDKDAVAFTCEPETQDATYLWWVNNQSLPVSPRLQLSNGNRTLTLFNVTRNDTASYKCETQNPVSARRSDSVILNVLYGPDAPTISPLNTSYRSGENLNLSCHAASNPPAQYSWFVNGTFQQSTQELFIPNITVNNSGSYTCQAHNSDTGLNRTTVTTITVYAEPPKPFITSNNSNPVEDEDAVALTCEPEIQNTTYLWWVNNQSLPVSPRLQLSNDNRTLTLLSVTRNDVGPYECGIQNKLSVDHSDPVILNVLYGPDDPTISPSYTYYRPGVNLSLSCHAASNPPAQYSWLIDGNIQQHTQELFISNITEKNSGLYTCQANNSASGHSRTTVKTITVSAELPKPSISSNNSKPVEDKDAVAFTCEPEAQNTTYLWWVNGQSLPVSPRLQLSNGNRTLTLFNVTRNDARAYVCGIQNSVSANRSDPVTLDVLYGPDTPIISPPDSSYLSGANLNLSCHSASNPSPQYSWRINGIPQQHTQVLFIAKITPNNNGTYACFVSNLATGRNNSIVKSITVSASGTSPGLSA


Target: T1, human CEA (CEACAM5), form in the assay …
Assay: SPR

Kd [nM] | Binder
~2.5 | A5H1EL1D humanized anti-CEA antibody (format in the assay not stated) (antibody, V domains shown, also called huA5B7; 3-23A5-1E / A5-L1D) VH: EVQLLESGGGLVQPGGSLRLSCAASGFTFTDYYMNWVRQAPGKGLEWLGFIGNKANAYTTEYSASVKGRFTISRDKSKNTLYLQMNSLRAEDTATYYCTRDRGLRFYFDYWGQGTTVTVSS VL: EIVLTQSPATLSLSPGERATLSCRASSSVTYIHWYQQKPGQAPRSWIYATSNLASGIPARFSGSGSGTDFTLTISSLEPEDFAVYYCQHWSSKPPTFGQGTKLEIK
~0.8 | A5B7 parental murine anti-CEA antibody (antibody, V domains shown, also called parental chimeric antibody) VH: EVKLVESGGGLVQPGGSLRLSCATSGFTFTDYYMNWVRQPPGKALEWLGFIGNKANGYTTEYSASVKGRFTISRDKSQSILYLQMNTLRAEDSATYYCTRDRGLRFYFDYWGQGTTLTVSS VL: QTVLSQSPAILSASPGEKVTMTCRASSSVTYIHWYQQKPGSSPKSWIYATSNLASGVPARFSGSGSGTSYSLTISRVEAEDAATYYCQHWSSKPPTFGGGTKLEIK
